We go through nine molecules from publication PMC9368738, “The Mechanistic Understanding of RAD51 Defibrillation: A Critical Step in BRCA2-Mediated DNA Repair by Homologous Recombination” (International Journal of Molecular Sciences, 2022).

The test system of assay [1] is RAD51 foci in BxPC-3 cell nuclei. Put plainly: Immunofluorescence detection of RAD51 nuclear foci. Format: cell-based. The note with it: 1.5 h. The method, then: General cell culture. BxPC-3 cells (purchased from ATCC) were grown in RPMI 1640 containing 10% FBS, 100 U/mL penicillin–streptomycin, and 2 mM glutamine. All media and supplements were from Sigma-Aldrich. Cultures were routinely tested for mycoplasma contamination. Immunofluorescence. Immunofluorescence was used to study RAD51 nuclear translocation. To visualize RAD51 in cell nuclei, BxPC-3 cells were seeded on glass coverslips placed in a 6-well culture plate (2 × 10^5 cells/well) and allowed to adhere for 24 h. […] The medium was then removed to eliminate the chemotherapeutic agents, and cells were maintained in the presence of 5 µM BRC4myr for an additional 4 h. After this time, cells were fixed with PBS containing PFA 4% for 15 min, permeabilized in 70% ethanol, and then washed twice in PBS. […] After washing, coverslips were incubated in secondary anti-rabbit rhodamine-labelled antibody (Novus Biologicals, 1:1000 in 1% BSA/PBS) for 30 min at 37 °C, washed, air-dried, and mounted in a solution 2 µg/mL DAPI in DABCO. Images were acquired using a Nikon fluorescent microscope equipped with filters for TRITC and DAPI. The percentage of cells bearing nuclear foci was estimated by analyzing approximately 300 cells for each treatment sample.

For the next assay, the target named is RAD51 (Homo sapiens) (UniProt Q06609). Put plainly: GST pull-down. As to conditions: cited from earlier work.
Another assay has as its system RAD51. The note with it: pull-down assays; cited from earlier work. An excerpt:
This information comes from the only 3D structure of the RAD51-BRC4 interaction (PBD 1NOW).

Assay [2] concerns the target full-length recombinant human RAD51 (N-terminal 6xHis-tagged) (human) (UniProt Q06609).
Assay [3] addresses T1, RAD51 fibrils (full-length recombinant human RAD51) (Homo sapiens, UniProt Q06609).
T1 construct: The full-length human RAD51 was expressed in E. coli Rosetta2(DE3) pLysS cells; made in house; host or cells: E. coli Rosetta2(DE3) pLysS, pET15b plasmid
T1 sequence (Q06609 1-339): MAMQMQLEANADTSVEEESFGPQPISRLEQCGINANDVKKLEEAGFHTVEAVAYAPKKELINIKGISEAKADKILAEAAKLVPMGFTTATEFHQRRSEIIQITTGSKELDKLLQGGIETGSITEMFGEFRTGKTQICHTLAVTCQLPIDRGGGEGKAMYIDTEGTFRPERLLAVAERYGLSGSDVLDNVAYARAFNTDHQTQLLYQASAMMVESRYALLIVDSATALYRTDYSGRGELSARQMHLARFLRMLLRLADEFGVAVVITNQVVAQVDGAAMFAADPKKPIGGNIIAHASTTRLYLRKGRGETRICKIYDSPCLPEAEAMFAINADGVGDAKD
The assay can be described thus: Static light scattering (SLS / CG-MALS) of BRC4-induced RAD51 defibrillation. Format: biochemical. The note with it: RAD51 6.25 µM = 0.25 mg/mL; very significant stoichiometric excesses of peptide.
Protocol: Static light scattering (SLS) and composition-gradient multi-angle static light scattering (CG-MALS). Measurements were carried out using a Calypso automated delivery system as a mixing unit, connected to a Dawn Heleos II multi-angle light scattering (MALS) and a T-rEX refractive index (RI) detector, both operating at 660 nm (all instruments produced by Wyatt Technology, Santa Barbara, CA, USA). […] Injection volume and flow rate were fixed at 0.8 mL and 1 mL/min, respectively. A delay time of 180 s was set between each injection.

For assay [4], the target named is T2, 6xHis-RAD51 (full-length recombinant human RAD51) (Homo sapiens, UniProt Q06609).
T2 construct: The full-length human RAD51 was expressed in E. coli Rosetta2(DE3) pLysS cells; made in house; host or cells: E. coli Rosetta2(DE3) pLysS, pET15b plasmid
T2 sequence (Q06609 1-339): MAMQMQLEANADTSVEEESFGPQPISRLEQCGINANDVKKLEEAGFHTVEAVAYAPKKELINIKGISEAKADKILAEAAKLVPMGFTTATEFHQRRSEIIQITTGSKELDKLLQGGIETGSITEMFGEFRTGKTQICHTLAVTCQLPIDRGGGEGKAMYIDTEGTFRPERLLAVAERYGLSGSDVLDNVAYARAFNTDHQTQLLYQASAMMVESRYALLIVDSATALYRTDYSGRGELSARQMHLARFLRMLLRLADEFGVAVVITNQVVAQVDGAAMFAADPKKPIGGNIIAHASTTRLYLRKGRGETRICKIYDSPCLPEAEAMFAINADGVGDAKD
Put plainly: Microscale thermophoresis (MST). Format: binding. As to conditions: highest concentration tested 400 μM; data not shown.

A further assay has as its system RAD51 fibrils. The assay can be described thus: Negative staining TEM of RAD51 fibrils. The note with it: large stoichiometric excess of peptide; RAD51 0.1 mg/mL (2.5 µM); incubation 2 h at 4 °C. Format: biochemical, human.
The target in assay [5] is T3, full-length recombinant human RAD51 (N-terminal 6xHis-tagged) (human, UniProt Q06609 1-339).
T3 construct: RAD51, human, full length; recombinase of 339 amino acids, about 40 kDa as monomer; Forms fibrils (homo-oligomers) without DNA; for MST labelled on the His tag with RED-tris-NTA 2nd Generation dye; also called His-RAD51; 6xHis-RAD51; source: E. coli Rosetta2(DE3) pLysS, pET15b, purified (His-Trap, anion exchange); not shown: His6, N-terminal, kept
T3 sequence (looked up): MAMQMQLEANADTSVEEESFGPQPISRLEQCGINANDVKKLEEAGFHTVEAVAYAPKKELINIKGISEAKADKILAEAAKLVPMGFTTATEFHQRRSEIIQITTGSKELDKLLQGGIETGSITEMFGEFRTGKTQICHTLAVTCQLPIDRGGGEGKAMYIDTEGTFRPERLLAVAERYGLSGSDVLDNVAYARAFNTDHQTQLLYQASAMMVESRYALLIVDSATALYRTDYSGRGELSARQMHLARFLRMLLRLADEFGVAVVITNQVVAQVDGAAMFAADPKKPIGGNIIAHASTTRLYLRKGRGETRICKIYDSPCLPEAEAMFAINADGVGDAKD
Put plainly: MST; RED-tris-NTA-labelled 6xHis-RAD51 constant (25 nM in the methods, 100 nM in the results), 16 concentrations of BRC4 up to 32 µM; apparent Kd bounded by the lowest EC50 (titration regime). The note with it: both partners purified.

Assay [6] has as its target T3, full-length recombinant human RAD51 …. Put plainly: static light scattering + other: dynamic light scattering + MST; midpoint of BRC4-induced RAD51 defibrillation against the BRC4/RAD51 molar ratio, RAD51 6.25 µM (SLS, DLS) or 100 nM (MST). As to conditions: both partners purified.
Assay [7] shares this target. Put plainly: static light scattering (CG-MALS) + other: dynamic light scattering; RAD51 constant at 0.25 mg/mL (6.25 µM) with BRC4 or scBRC4 from 0 to 0.19 mg/mL (48 µM); 20 mM HEPES pH 8, 0.1 mM EDTA, 250 mM KCl, 5% glycerol, 2 mM DTT; DLS at 25 °C; step constants kd and kd1 from a defibrillation model fitted to the apparent weight average mass. The note with it: both partners purified.

The target is the same in assay [8]. The assay can be described thus: negative-staining TEM with streptavidin-gold labelling; 0.1 mg/mL (2.5 µM) 6xHis-RAD51 with biotinylated BRC4 (non-labelled BRC4 as control) on grids, streptavidin-gold. The note with it: both partners purified.
The target of assay [9] is T4, full-length recombinant human RAD51 (N-terminal 6xHis-tagged) (human), Q06609.
T4 chain: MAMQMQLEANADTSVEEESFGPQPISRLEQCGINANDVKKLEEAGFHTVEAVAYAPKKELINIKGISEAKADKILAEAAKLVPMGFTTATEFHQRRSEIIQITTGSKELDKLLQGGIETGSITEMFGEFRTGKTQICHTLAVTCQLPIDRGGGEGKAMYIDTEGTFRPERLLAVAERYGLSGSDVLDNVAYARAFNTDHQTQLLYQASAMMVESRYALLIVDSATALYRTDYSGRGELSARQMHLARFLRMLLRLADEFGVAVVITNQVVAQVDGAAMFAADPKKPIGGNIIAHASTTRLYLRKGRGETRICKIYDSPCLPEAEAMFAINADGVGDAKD
Put plainly: static light scattering (CG-MALS, Zimm plots); RAD51 alone at five concentrations between 0.1 and 0.35 mg/mL (2.5-8.75 µM); 20 mM HEPES pH 8, 0.1 mM EDTA, 250 mM KCl, 5% glycerol, 2 mM DTT. As to conditions: remark: other sources report otherwise.

Where “and” joins values, the source holds several entries; their conditions need not be identical. Equal values may be shown once.

`N.N.[Cl][Pt][Cl]` [cisplatin]: the “RAD51 nuclear foci, cisplatin alone” value in [1] (50 µM cisplatin) was “large number of nuclear RAD51 foci”. Turning to `COc1cccc2c1C(=O)c1c(O)c3c(c(O)c1C2=O)C[C@@](O)(C(=O)CO)C[C@@H]3O[C@H]1C[C@H](N)[C@H](O)[C@H](C)O1` [doxorubicin], in assay [1] (200 nM doxorubicin), the “RAD51 nuclear foci, doxorubicin alone” value was “large number of nuclear RAD51 foci”.

BRCA2 BRC4 (from UniProt P51587): the Kd with RAD51 (Homo sapiens) was 1500 nM. “BRCA2: large protein (3418 amino acids) that interacts with RAD51 through eight BRC repeats”: the BRCA2-RAD51 binding affinity result with RAD51 is listed as “nanomolar affinity”. Take myristoylated BRC4 peptide (BRC4myr): in assay [2], the homologous recombination (HR) assay in BxPC-3 cells, IC50 of HR inhibition was determined as 10 µM; the homologous recombination (HR) assay in BxPC-3 cells, percent HR inhibition at 5, 10 and 30 µM BRC4myr turned out to be 85.1%. Regarding “scBRC4: BRC4 (35 residues) peptide, carrying a double mutation [F1524A, T1526A] (KEPTLLGAHAASGKKVKIAKESLDKVKNLFDEKEQ)”, the “apparent weight average mass versus no-interaction prediction” value in assay [3] is reported as “followed the theoretical “no-interaction” prediction”. In addition, the “binding to RAD51 (MST)” value in assay [4] was “no binding”. Moreover, the “RAD51 fibrils in TEM” value in the assay on RAD51 fibrils is listed as “the fibrils were still visible”.

B1: BRC4 peptide (residues 1517-1551 of BRCA2) (peptide)
peptide: KEPTLLGFHTASGKKVKIAKESLDKVKNLFDEKEQ
notes: BRCA2, fourth BRC repeat, residues 1517-1551, MW 3957.6 Da; also called fourth BRC repeat of BRCA2; source: bought: Thermo Fisher Scientific (synthetic peptide)
Take B1: the Kd in assay [5] was no more than 60 nM. Further, the “stoichiometry N” value in [6] was 1 BRC4 per RAD51. The “kd (each step of loss of a RAD51 unit from a fibril, from the defibrillation model)” value in assay [7] is 33.7 ± 0.5 dimensionless.

B2: biotinylated BRC4 peptide (peptide)
peptide: KEPTLLGFHTASGKKVKIAKESLDKVKNLFDEKEQ
modifications: biotin (position not given)
notes: BRCA2, fourth BRC repeat, residues 1517-1551, as BRC4; also called labelled peptide; source: bought: Thermo Fisher Scientific (synthetic peptide, BRC4 derivative)
Take B2: the binding result in [8] is reported as “binds”.

B3: full-length recombinant human RAD51 (N-terminal 6xHis-tagged), Q06609 1-339 (natural protein)
chain: MAMQMQLEANADTSVEEESFGPQPISRLEQCGINANDVKKLEEAGFHTVEAVAYAPKKELINIKGISEAKADKILAEAAKLVPMGFTTATEFHQRRSEIIQITTGSKELDKLLQGGIETGSITEMFGEFRTGKTQICHTLAVTCQLPIDRGGGEGKAMYIDTEGTFRPERLLAVAERYGLSGSDVLDNVAYARAFNTDHQTQLLYQASAMMVESRYALLIVDSATALYRTDYSGRGELSARQMHLARFLRMLLRLADEFGVAVVITNQVVAQVDGAAMFAADPKKPIGGNIIAHASTTRLYLRKGRGETRICKIYDSPCLPEAEAMFAINADGVGDAKD
For B3, the stoichiometry N (protomers per aggregate) in assay [9] is 40 and 70.
